Test results: publication PMC7471176
Values belong to the substance of their own block, whether it stands above or below them.

What was measured:
[1] = target: Casein (Hammerstein casein)
[2] = target: Casein (Hammerstein casein); remark: listed apart in the source

specific caseinolytic activity at pH 6, against that of the Y195R variant [1]: 1.8 fold
Substance: KP-43 Y195I (Tyr195Ile) variant (enzyme)

specific caseinolytic activity at pH 10, against that of the Y195W variant [1]: 4.4 fold
Substance: KP-43 Y195Q (Tyr195Gln) variant (enzyme)

specific caseinolytic activity at pH 7, against that at pH 10 (series pH 6 to 10) [2]: 90%
Substance: KP-43 alkaline serine protease, wild type (enzyme)
